Source: US20130005646A1 (Novo Nordisk, published 2013)
Starred links: 1 amine or outer side, 2 acyl side, 3 side chain; linkers in the order of their positions; H or OH if unused. Positions of bridges follow the written chain, without caps; N, C: chain ends. *: point of attachment. X1 = (S)‑4‑Carboxy‑4‑(19-carboxynonadecanoylamino)butyryl, O=C(O)CCCCCCCCCCCCCCCCCCC(=O)N[C@@H](CCC(=O)*)C(=O)O; C20 diacid = O=C(O)CCCCCCCCCCCCCCCCCCC(=O)*; γGlu = O=C(O)[C@H](CCC(=O)[*:2])N[*:1]

B1: N-alpha-[(S)-4-Carboxy-4-(19-carboxynonadecanoylamino)butyryl]-[Glu14,His17,Arg35]-pramlintide (peptide)
peptide: {C20 diacid-γGlu}-KCNTATCATQRLAEFLHHSSNNFGPILPPTNVGSRTY-NH2
modifications: disulfide 2-7
SMILES: CC[C@H](C)[C@H](NC(=O)[C@@H]1CCCN1C(=O)CNC(=O)[C@H](Cc1ccccc1)NC(=O)[C@H](CC(N)=O)NC(=O)[C@H](CC(N)=O)NC(=O)[C@H](CO)NC(=O)[C@H](CO)NC(=O)[C@H](Cc1c[nH]cn1)NC(=O)[C@H](Cc1c[nH]cn1)NC(=O)[C@H](CC(C)C)NC(=O)[C@H](Cc1ccccc1)NC(=O)[C@H](CCC(=O)O)NC(=O)[C@H](C)NC(=O)[C@H](CC(C)C)NC(=O)[C@H](CCCNC(=N)N)NC(=O)[C@H](CCC(N)=O)NC(=O)[C@@H](NC(=O)[C@H](C)NC(=O)[C@@H]1CSSC[C@H](NC(=O)[C@H](CCCCN)NC(=O)CC[C@H](NC(=O)CCCCCCCCCCCCCCCCCCC(=O)O)C(=O)O)C(=O)N[C@@H](CC(N)=O)C(=O)N[C@@H]([C@@H](C)O)C(=O)N[C@@H](C)C(=O)N[C@@H]([C@@H](C)O)C(=O)N1)[C@@H](C)O)C(=O)N[C@@H](CC(C)C)C(=O)N1CCC[C@H]1C(=O)N1CCC[C@H]1C(=O)N[C@H](C(=O)N[C@@H](CC(N)=O)C(=O)N[C@H](C(=O)NCC(=O)N[C@@H](CO)C(=O)N[C@@H](CCCNC(=N)N)C(=O)N[C@H](C(=O)N[C@@H](Cc1ccc(O)cc1)C(N)=O)[C@@H](C)O)C(C)C)[C@@H](C)O
B2: N-alpha-[(S)-4-Carboxy-4-(19-carboxynonadecanoylamino)butyryl]-[Glu14,His17,Lys35]-pramlintide (peptide)
peptide: {C20 diacid-γGlu}-KCNTATCATQRLAEFLHHSSNNFGPILPPTNVGSKTY-NH2
modifications: disulfide 2-7; not fully specified; printed as N-alpha-[(S)-4-Carboxy-4-(19-carboxynonadecanoylamino)butyryl]-[Glu14,His17,Lys35]-pramlintide
B3: N-alpha-[(S)-4-Carboxy-4-(19-carboxynonadecanoylamino)butyryl]-[Glu14,His17,His36]-pramlintide (peptide)
peptide: {C20 diacid-γGlu}-KCNTATCATQRLAEFLHHSSNNFGPILPPTNVGSNHY-NH2
modifications: disulfide 2-7; not fully specified; printed as N-alpha-[(S)-4-Carboxy-4-(19-carboxynonadecanoylamino)butyryl]-[Glu14,His17,His36]-pramlintide
B4: N-alpha-[(S)-4-Carboxy-4-(19-carboxynonadecanoylamino)butyryl]-[His1,Glu14,Pro37]-pramlintide (peptide)
peptide: {C20 diacid-γGlu}-HCNTATCATQRLAEFLVHSSNNFGPILPPTNVGSNTP-NH2
modifications: disulfide 2-7
SMILES: CC[C@H](C)[C@H](NC(=O)[C@@H]1CCCN1C(=O)CNC(=O)[C@H](Cc1ccccc1)NC(=O)[C@H](CC(N)=O)NC(=O)[C@H](CC(N)=O)NC(=O)[C@H](CO)NC(=O)[C@H](CO)NC(=O)[C@H](Cc1c[nH]cn1)NC(=O)[C@@H](NC(=O)[C@H](CC(C)C)NC(=O)[C@H](Cc1ccccc1)NC(=O)[C@H](CCC(=O)O)NC(=O)[C@H](C)NC(=O)[C@H](CC(C)C)NC(=O)[C@H](CCCNC(=N)N)NC(=O)[C@H](CCC(N)=O)NC(=O)[C@@H](NC(=O)[C@H](C)NC(=O)[C@@H]1CSSC[C@H](NC(=O)[C@H](Cc2c[nH]cn2)NC(=O)CC[C@H](NC(=O)CCCCCCCCCCCCCCCCCCC(=O)O)C(=O)O)C(=O)N[C@@H](CC(N)=O)C(=O)N[C@@H]([C@@H](C)O)C(=O)N[C@@H](C)C(=O)N[C@@H]([C@@H](C)O)C(=O)N1)[C@@H](C)O)C(C)C)C(=O)N[C@@H](CC(C)C)C(=O)N1CCC[C@H]1C(=O)N1CCC[C@H]1C(=O)N[C@H](C(=O)N[C@@H](CC(N)=O)C(=O)N[C@H](C(=O)NCC(=O)N[C@@H](CO)C(=O)N[C@@H](CC(N)=O)C(=O)N[C@H](C(=O)N1CCC[C@H]1C(N)=O)[C@@H](C)O)C(C)C)[C@@H](C)O
B5: N-alpha-[(S)-4-Carboxy-4-(19-carboxynonadecanoylamino)butyryl]-[des1,Glu14,Pro37]-pramlintide (peptide)
peptide: {C20 diacid-γGlu}-CNTATCATQRLAEFLVHSSNNFGPILPPTNVGSNTP-NH2
modifications: disulfide 1-6
SMILES: CC[C@H](C)[C@H](NC(=O)[C@@H]1CCCN1C(=O)CNC(=O)[C@H](Cc1ccccc1)NC(=O)[C@H](CC(N)=O)NC(=O)[C@H](CC(N)=O)NC(=O)[C@H](CO)NC(=O)[C@H](CO)NC(=O)[C@H](Cc1c[nH]cn1)NC(=O)[C@@H](NC(=O)[C@H](CC(C)C)NC(=O)[C@H](Cc1ccccc1)NC(=O)[C@H](CCC(=O)O)NC(=O)[C@H](C)NC(=O)[C@H](CC(C)C)NC(=O)[C@H](CCCNC(=N)N)NC(=O)[C@H](CCC(N)=O)NC(=O)[C@@H](NC(=O)[C@H](C)NC(=O)[C@@H]1CSSC[C@H](NC(=O)CC[C@H](NC(=O)CCCCCCCCCCCCCCCCCCC(=O)O)C(=O)O)C(=O)N[C@@H](CC(N)=O)C(=O)N[C@@H]([C@@H](C)O)C(=O)N[C@@H](C)C(=O)N[C@@H]([C@@H](C)O)C(=O)N1)[C@@H](C)O)C(C)C)C(=O)N[C@@H](CC(C)C)C(=O)N1CCC[C@H]1C(=O)N1CCC[C@H]1C(=O)N[C@H](C(=O)N[C@@H](CC(N)=O)C(=O)N[C@H](C(=O)NCC(=O)N[C@@H](CO)C(=O)N[C@@H](CC(N)=O)C(=O)N[C@H](C(=O)N1CCC[C@H]1C(N)=O)[C@@H](C)O)C(C)C)[C@@H](C)O
B6: N-alpha-[(S)-4-Carboxy-4-(19-carboxynonadecanoylamino)butyryl]-[His1,Glu14,Ser21,Ser28,Ser29,His35]-pramlintide (peptide)
peptide: {C20 diacid-γGlu}-HCNTATCATQRLAEFLVHSSSNFGPILSSTNVGSHTY-NH2
modifications: disulfide 2-7
SMILES: CC[C@H](C)[C@H](NC(=O)[C@@H]1CCCN1C(=O)CNC(=O)[C@H](Cc1ccccc1)NC(=O)[C@H](CC(N)=O)NC(=O)[C@H](CO)NC(=O)[C@H](CO)NC(=O)[C@H](CO)NC(=O)[C@H](Cc1c[nH]cn1)NC(=O)[C@@H](NC(=O)[C@H](CC(C)C)NC(=O)[C@H](Cc1ccccc1)NC(=O)[C@H](CCC(=O)O)NC(=O)[C@H](C)NC(=O)[C@H](CC(C)C)NC(=O)[C@H](CCCNC(=N)N)NC(=O)[C@H](CCC(N)=O)NC(=O)[C@@H](NC(=O)[C@H](C)NC(=O)[C@@H]1CSSC[C@H](NC(=O)[C@H](Cc2c[nH]cn2)NC(=O)CC[C@H](NC(=O)CCCCCCCCCCCCCCCCCCC(=O)O)C(=O)O)C(=O)N[C@@H](CC(N)=O)C(=O)N[C@@H]([C@@H](C)O)C(=O)N[C@@H](C)C(=O)N[C@@H]([C@@H](C)O)C(=O)N1)[C@@H](C)O)C(C)C)C(=O)N[C@@H](CC(C)C)C(=O)N[C@@H](CO)C(=O)N[C@@H](CO)C(=O)N[C@H](C(=O)N[C@@H](CC(N)=O)C(=O)N[C@H](C(=O)NCC(=O)N[C@@H](CO)C(=O)N[C@@H](Cc1c[nH]cn1)C(=O)N[C@H](C(=O)N[C@@H](Cc1ccc(O)cc1)C(N)=O)[C@@H](C)O)C(C)C)[C@@H](C)O
B7: N-alpha-[(S)-4-Carboxy-4-(19-carboxynonadecanoylamino)butyryl]-[His1,Glu14,Arg17,Ser21,Ser28,Ser29,His35]-pramlintide (peptide)
peptide: X1-HCNTATCATQRLAEFLRHSSSNFGPILSSTNVGSHTY-NH2
modifications: disulfide 2-7
SMILES: CC[C@H](C)[C@H](NC(=O)[C@@H]1CCCN1C(=O)CNC(=O)[C@H](Cc1ccccc1)NC(=O)[C@H](CC(N)=O)NC(=O)[C@H](CO)NC(=O)[C@H](CO)NC(=O)[C@H](CO)NC(=O)[C@H](Cc1c[nH]cn1)NC(=O)[C@H](CCCNC(=N)N)NC(=O)[C@H](CC(C)C)NC(=O)[C@H](Cc1ccccc1)NC(=O)[C@H](CCC(=O)O)NC(=O)[C@H](C)NC(=O)[C@H](CC(C)C)NC(=O)[C@H](CCCNC(=N)N)NC(=O)[C@H](CCC(N)=O)NC(=O)[C@@H](NC(=O)[C@H](C)NC(=O)[C@@H]1CSSC[C@H](NC(=O)[C@H](Cc2c[nH]cn2)NC(=O)CC[C@H](NC(=O)CCCCCCCCCCCCCCCCCCC(=O)O)C(=O)O)C(=O)N[C@@H](CC(N)=O)C(=O)N[C@@H]([C@@H](C)O)C(=O)N[C@@H](C)C(=O)N[C@@H]([C@@H](C)O)C(=O)N1)[C@@H](C)O)C(=O)N[C@@H](CC(C)C)C(=O)N[C@@H](CO)C(=O)N[C@@H](CO)C(=O)N[C@H](C(=O)N[C@@H](CC(N)=O)C(=O)N[C@H](C(=O)NCC(=O)N[C@@H](CO)C(=O)N[C@@H](Cc1c[nH]cn1)C(=O)N[C@H](C(=O)N[C@@H](Cc1ccc(O)cc1)C(N)=O)[C@@H](C)O)C(C)C)[C@@H](C)O

Columns and labels:
[1] = biological target: T1, human amylin 3(a) receptor (human calcitonin receptor + RAMP-3) (human, UniProt P30988 25-474; O60896 24-148); test: cell-based or functional assay
T1 sequence (looked up) 1: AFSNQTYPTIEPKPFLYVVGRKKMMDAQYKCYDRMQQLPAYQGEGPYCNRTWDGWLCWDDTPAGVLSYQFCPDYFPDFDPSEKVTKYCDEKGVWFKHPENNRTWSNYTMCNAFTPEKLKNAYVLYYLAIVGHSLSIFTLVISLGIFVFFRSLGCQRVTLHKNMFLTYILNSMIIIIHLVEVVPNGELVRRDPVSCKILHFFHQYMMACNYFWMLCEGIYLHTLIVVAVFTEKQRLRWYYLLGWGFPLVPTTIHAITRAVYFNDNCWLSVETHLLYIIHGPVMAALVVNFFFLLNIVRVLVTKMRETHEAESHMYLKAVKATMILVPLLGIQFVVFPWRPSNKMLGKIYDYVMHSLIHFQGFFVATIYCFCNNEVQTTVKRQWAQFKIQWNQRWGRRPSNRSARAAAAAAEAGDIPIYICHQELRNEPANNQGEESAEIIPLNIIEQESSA
T1 sequence (looked up) 2: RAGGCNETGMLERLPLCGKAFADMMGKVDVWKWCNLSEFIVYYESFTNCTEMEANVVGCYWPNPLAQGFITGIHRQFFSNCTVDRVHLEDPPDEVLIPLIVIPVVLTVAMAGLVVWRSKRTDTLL

[2] = biological target: T2, human calcitonin (a) receptor (human, UniProt P30988 25-474); test: cell-based or functional assay
T2 sequence (looked up): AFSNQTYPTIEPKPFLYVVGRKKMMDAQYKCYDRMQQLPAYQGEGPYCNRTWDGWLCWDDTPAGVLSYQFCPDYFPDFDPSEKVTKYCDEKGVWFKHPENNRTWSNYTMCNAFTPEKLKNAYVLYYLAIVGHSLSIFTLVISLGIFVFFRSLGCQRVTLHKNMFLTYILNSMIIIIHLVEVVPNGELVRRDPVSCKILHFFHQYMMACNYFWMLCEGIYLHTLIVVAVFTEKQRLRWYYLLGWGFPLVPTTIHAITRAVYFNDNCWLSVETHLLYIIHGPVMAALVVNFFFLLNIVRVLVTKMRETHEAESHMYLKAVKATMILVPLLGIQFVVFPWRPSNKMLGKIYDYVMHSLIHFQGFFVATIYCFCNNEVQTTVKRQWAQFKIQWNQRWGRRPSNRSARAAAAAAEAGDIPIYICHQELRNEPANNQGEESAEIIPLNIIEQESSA

Row | Binder | Amylin receptor human EC50 [1] [nM] | CTa receptor human EC50 [2] [nM]
1 | B1 | 0.098 | 0.104
2 | B2 | 0.134 | 0.13
3 | B3 | 0.382 | 0.113
4 | B4 | 0.0845 | 0.0725
5 | B5 | 0.088 | 0.0735
6 | B6 | 0.921 | 0.349
7 | B7 | 0.394 | 0.57
